Data reported in the Immune Epitope Database (IEDB).

What was measured:
[1] = biological target: HLA-A*24:02; test: IEDB peptide-MHC binding, purified MHC/competitive/fluorescence; ≥ and ≤ were set here for values at or beyond the usual limits of such assays; settings: source organism: Zaire ebolavirus
[2] = biological target: HLA-B*07:02; test: as above; settings: source organism: Zaire ebolavirus
[3] = biological target: HLA-B*15:01; test: as above; settings: source organism: Zaire ebolavirus
[4] = biological target: HLA-A*03:01; test: IEDB peptide-MHC binding, purified MHC/direct/fluorescence; filed as Kd, often an IC50 or EC50 that approximates it; ≥ and ≤ were set here for values at or beyond the usual limits of such assays
[5] = biological target: HLA-A*11:01; test: as above
[6] = biological target: HLA-A*31:01; test: IEDB peptide-MHC binding, purified MHC/competitive/fluorescence; filed as Kd, often an IC50 or EC50 that approximates it; ≥ and ≤ were set here for values at or beyond the usual limits of such assays
[7] = biological target: HLA-A*01:01; test: IEDB peptide-MHC binding, purified MHC/direct/fluorescence; filed as Kd, often an IC50 or EC50 that approximates it; ≥ and ≤ were set here for values at or beyond the usual limits of such assays
[8] = biological target: HLA-A*02:01; test: as above
[9] = biological target: HLA-A*24:02; test: as above
[10] = biological target: HLA-A*31:01; test: as above
[11] = biological target: HLA-A*69:01; test: as above
[12] = biological target: HLA-B*07:02; test: as above
[13] = biological target: HLA-B*08:01; test: as above; settings: source organism: Influenza A virus (A/Puerto Rico/8/34/Mount Sinai(H1N1))
[14] = biological target: HLA-B*15:01; test: as above
[15] = biological target: HLA-B*18:01; test: as above
[16] = biological target: HLA-B*27:05; test: as above
[17] = biological target: HLA-B*40:01; test: as above
[18] = biological target: HLA-B*44:02; test: as above
[19] = biological target: HLA-B*46:01; test: as above
[20] = biological target: HLA-B*58:01; test: as above
[21] = biological target: HLA-B*15:09; test: as above
[22] = biological target: HLA-B*39:01; test: IEDB peptide-MHC binding, purified MHC/competitive/fluorescence; filed as Kd, often an IC50 or EC50 that approximates it; ≥ and ≤ were set here for values at or beyond the usual limits of such assays
[23] = biological target: HLA-A*03:01; test: as above
[24] = biological target: HLA-B*15:01; test: as above; settings: source organism: Salmonella enterica subsp. enterica serovar Typhi
[25] = biological target: HLA-A*29:02; test: IEDB peptide-MHC binding, purified MHC/direct/fluorescence; filed as Kd, often an IC50 or EC50 that approximates it; ≥ and ≤ were set here for values at or beyond the usual limits of such assays; settings: source organism: Mammarenavirus lassaense
[26] = biological target: HLA-B*39:01; test: as above
[27] = biological target: HLA-B*48:01; test: as above; settings: source organism: Mammarenavirus lassaense
[28] = biological target: HLA-B*57:01; test: as above; settings: source organism: Mammarenavirus lassaense
[29] = biological target: HLA-A*02:01; test: IEDB peptide-MHC binding, purified MHC/competitive/fluorescence; ≥ and ≤ were set here for values at or beyond the usual limits of such assays; settings: source organism: Zaire ebolavirus
[30] = biological target: HLA-A*03:01; test: as above; settings: source organism: Zaire ebolavirus
[31] = biological target: HLA-A*02:11; test: IEDB peptide-MHC binding, purified MHC/direct/fluorescence; filed as Kd, often an IC50 or EC50 that approximates it; ≥ and ≤ were set here for values at or beyond the usual limits of such assays; settings: source organism: Rickettsia prowazekii
[32] = biological target: HLA-A*02:19; test: as above; settings: source organism: Rickettsia prowazekii
[33] = source organism: Shigella boydii
[34] = source organism: Influenza A virus (A/swine/Korea/S190/2004(H9N2))
[35] = source organism: Salmonella enterica subsp. enterica serovar Typhi
[36] = source organism: Mammarenavirus lassaense
[37] = source organism: Escherichia coli O139:H28 str. E24377A
[38] = source organism: Bacillus anthracis
[39] = source organism: Rickettsia prowazekii
[40] = source organism: Giardia lamblia ATCC 50803
[41] = source organism: Vibrio parahaemolyticus AQ3810

Q: With KIRSEELSF as the sequence, how does the IC50 [1] read?
A: Its IC50 is no less than 106000 nM.

Q: What about the IC50 [2] of the same sequence?
A: The IC50 was no less than 173000 nM.

Q: And the IC50 [3]?
A: The IC50 was no less than 91700 nM.

Q: What does the source list for PLSRLFYPK?
A: Kd [4, 33]: 649 nM; Kd [5, 33]: 128 nM; Kd [6, 33]: 74.8 nM

Q: With IPKRNRSIL as the sequence, how does the Kd [7, 34] read?
A: Its Kd is no less than 20000 nM.

Q: What about the Kd [8, 34] of the same sequence?
A: The Kd was no less than 20000 nM.

Q: What about the Kd [4, 34] of the same sequence?
A: Its Kd is no less than 20000 nM.

Q: And the Kd [5, 34]?
A: Its Kd is no less than 20000 nM.

Q: And the Kd [9, 34]?
A: Its Kd is no less than 20000 nM.

Q: And the Kd [10, 34]?
A: Its Kd is no less than 20000 nM.

Q: What about the Kd [11, 34] of the same sequence?
A: Its Kd is no less than 20000 nM.

Q: What about the Kd ([12]; source organism: Influenza A virus (A/Puerto Rico/8/34/Mount Sinai(H1N1))) of the same sequence?
A: Its Kd is 15 nM.

Q: And the Kd [13]?
A: Its Kd is 268 nM.

Q: And the Kd [14, 34]?
A: The Kd was no less than 20000 nM.

Q: What about the Kd [15, 34] of the same sequence?
A: Its Kd is no less than 20000 nM.

Q: And the Kd [16, 34]?
A: Its Kd is no less than 20000 nM.

Q: What about the Kd [17, 34] of the same sequence?
A: Its Kd is no less than 20000 nM.

Q: What about the Kd [18, 34] of the same sequence?
A: Its Kd is no less than 20000 nM.

Q: What about the Kd [19, 34] of the same sequence?
A: Its Kd is no less than 20000 nM.

Q: And the Kd [20, 34]?
A: The Kd was no less than 20000 nM.

Q: How did the Kd ([21]; source organism: Bacillus cereus H3081.97) turn out when EHFLGIWGL was run?
A: Its Kd is 94 nM.

Q: And the Kd ([22]; source organism: Bacillus thuringiensis str. Al Hakam)?
A: Its Kd is 17.9 nM.

Q: With MTDAIRTLK as the sequence, how does the Kd [23, 35] read?
A: Its Kd is 134 nM.

Q: And the Kd [6, 35]?
A: The Kd was 2310 nM.

Q: What about the Kd [24] of the same sequence?
A: Its Kd is no less than 20000 nM.

Q: For SHGIDVTDL, which Kd [7, 36] is on record?
A: Its Kd is no less than 20000 nM.

Q: And the Kd [8, 36]?
A: Its Kd is no less than 20000 nM.

Q: What about the Kd [4, 36] of the same sequence?
A: Its Kd is no less than 20000 nM.

Q: What about the Kd [5, 36] of the same sequence?
A: The Kd was no less than 20000 nM.

Q: What about the Kd [25] of the same sequence?
A: Its Kd is no less than 20000 nM.

Q: And the Kd [10, 36]?
A: Its Kd is no less than 20000 nM.

Q: And the Kd [11, 36]?
A: The Kd was no less than 20000 nM.

Q: What about the Kd [12, 36] of the same sequence?
A: The Kd was no less than 20000 nM.

Q: What about the Kd [14, 36] of the same sequence?
A: The Kd was no less than 20000 nM.

Q: And the Kd [21, 36]?
A: The Kd was no less than 20000 nM.

Q: And the Kd [15, 36]?
A: The Kd was no less than 20000 nM.

Q: What about the Kd [16, 36] of the same sequence?
A: The Kd was no less than 20000 nM.

Q: What about the Kd [26, 36] of the same sequence?
A: The Kd was no less than 20000 nM.

Q: And the Kd [17, 36]?
A: Its Kd is no less than 20000 nM.

Q: And the Kd [18, 36]?
A: Its Kd is no less than 20000 nM.

Q: What about the Kd [19, 36] of the same sequence?
A: The Kd was no less than 20000 nM.

Q: What about the Kd [27] of the same sequence?
A: The Kd was no less than 20000 nM.

Q: And the Kd [28]?
A: The Kd was no less than 20000 nM.

Q: What about the Kd [20, 36] of the same sequence?
A: The Kd was no less than 20000 nM.

Q: For IWARTYFFK, which Kd ([9]; source organism: Salmonella enterica subsp. enterica serovar Choleraesuis str. SC-B67) is on record?
A: Its Kd is 296 nM.

Q: What does the source list for GINWKHPKR?
A: Kd [23, 37]: 1570 nM; Kd [6, 37]: 199 nM

Q: Which Kd [4, 38] does the source give for GTGAGVPSK here?
A: Its Kd is 1140 nM.

Q: And the Kd [5, 38]?
A: The Kd was 11.3 nM.

Q: What about the Kd ([6]; source organism: Bacillus anthracis str. A0488) of the same sequence?
A: The Kd was 644 nM.

Q: How did the IC50 [29] turn out when RVIPVYQVN was run?
A: Its IC50 is no less than 87200 nM.

Q: And the IC50 [30]?
A: The IC50 was no less than 277000 nM.

Q: And the IC50 [1]?
A: The IC50 was 51600 nM.

Q: What about the IC50 [2] of the same sequence?
A: The IC50 was no less than 151000 nM.

Q: What about the IC50 [3] of the same sequence?
A: Its IC50 is no less than 72800 nM.

Q: For FGSGWTWVV, which Kd [8, 39] is on record?
A: Its Kd is 669 nM.

Q: What about the Kd [31] of the same sequence?
A: The Kd was no more than 1 nM.

Q: What about the Kd [32] of the same sequence?
A: The Kd was no more than 1 nM.

Q: What about the Kd [11, 39] of the same sequence?
A: The Kd was 1180 nM.

Q: With TVDSLSPLK as the sequence, how does the Kd [4, 40] read?
A: The Kd was 364 nM.

Q: And the Kd [5, 40]?
A: The Kd was 12.3 nM.

Q: And the Kd [6, 40]?
A: The Kd was no less than 20000 nM.

Q: Which results are given for EQYGPRHTL?
A: Kd [21, 41]: 180 nM; Kd [26, 41]: 4 nM

Q: What does the source list for YRYEFNNDW?
A: Kd ([21]; source organism: Yersinia pestis CA88-4125): ≥ 20000 nM; Kd ([22]; source organism: Yersinia pseudotuberculosis IP 31758): 996 nM
